# Reference: paper PMC9482650, “Quantitative fragmentomics allow affinity mapping of interactomes” (Nature Communications, 2022)
# T1: HTRA3, P83110
# T1 sequence (P83110 354-453, limits assumed, looked up): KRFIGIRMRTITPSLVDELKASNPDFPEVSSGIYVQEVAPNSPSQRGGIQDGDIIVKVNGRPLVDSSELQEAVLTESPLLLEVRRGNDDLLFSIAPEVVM
# T2: DVL3, Q92997
# T2 sequence (Q92997 244-331, limits assumed, looked up): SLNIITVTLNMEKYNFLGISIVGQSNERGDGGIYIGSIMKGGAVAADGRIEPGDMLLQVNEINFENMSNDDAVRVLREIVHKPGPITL
# T3: GRIP1_5, Q9Y3R0
# T3 sequence (Q9Y3R0 568-668, limits assumed, looked up): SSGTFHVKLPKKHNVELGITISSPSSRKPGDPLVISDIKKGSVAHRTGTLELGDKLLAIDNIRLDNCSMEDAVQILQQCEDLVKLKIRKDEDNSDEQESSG
# T4: APBA1_2, Q02410
# T4 sequence (Q02410 742-832, limits assumed, looked up): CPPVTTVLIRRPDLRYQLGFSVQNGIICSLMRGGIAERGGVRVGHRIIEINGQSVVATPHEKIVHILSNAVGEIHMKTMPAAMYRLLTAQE
# T5: LNX2_2, Q8N448
# T5 sequence (Q8N448 334-432, limits assumed, looked up): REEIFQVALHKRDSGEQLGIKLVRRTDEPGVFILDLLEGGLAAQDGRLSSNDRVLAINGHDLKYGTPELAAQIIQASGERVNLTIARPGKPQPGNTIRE
# T6: APBA1_1, Q02410
# T6 sequence (Q02410 651-752, limits assumed, looked up): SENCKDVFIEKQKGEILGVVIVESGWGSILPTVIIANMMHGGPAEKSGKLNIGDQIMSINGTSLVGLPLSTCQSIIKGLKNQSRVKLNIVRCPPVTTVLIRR
# T7: DFNB31_2, Q9P202
# T7 sequence (Q9P202 274-371, limits assumed, looked up): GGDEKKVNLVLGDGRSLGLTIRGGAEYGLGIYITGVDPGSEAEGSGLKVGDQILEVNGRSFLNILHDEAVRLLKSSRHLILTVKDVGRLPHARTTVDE
# T8: DLG3_3, Q92796
# T8 sequence (Q92796 374-475, limits assumed, looked up): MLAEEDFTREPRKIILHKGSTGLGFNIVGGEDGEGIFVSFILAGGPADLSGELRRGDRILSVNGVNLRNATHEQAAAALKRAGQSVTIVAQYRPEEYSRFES
# T9: FRMPD1, Q5SYB0
# T9 sequence (Q5SYB0 52-145, limits assumed, looked up): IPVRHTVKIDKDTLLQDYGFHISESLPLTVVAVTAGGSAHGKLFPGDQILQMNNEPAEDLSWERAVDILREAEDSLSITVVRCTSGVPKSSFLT
# Tests used:
# Assay in all cases: holdup assay
# Design in all cases: key: below the threshold = too weak to quantify, mostly under pKd 3.1 to 4
# TJP1_3, Q07157 = biological target: TJP1_3, Q07157
# Inadl_9, Q8NI35 = biological target: Inadl_9, Q8NI35
# AHNAK1, Q09666 = biological target: AHNAK1, Q09666
# HTRA3, P83110 = biological target: T1, HTRA3, P83110
# GRIP2_3, Q9C0E4 = biological target: GRIP2_3, Q9C0E4
# Inadl_4, Q8NI35 = biological target: Inadl_4, Q8NI35
# SCRIB_3, Q14160 = biological target: SCRIB_3, Q14160
# FRMPD3, Q5JV73 = biological target: FRMPD3, Q5JV73
# DVL3, Q92997 = biological target: T2, DVL3, Q92997
# GRIP1_5, Q9Y3R0 = biological target: T3, GRIP1_5, Q9Y3R0
# APBA1_2, Q02410 = biological target: T4, APBA1_2, Q02410
# Inadl_10, Q8NI35 = biological target: Inadl_10, Q8NI35
# GOPC, Q9HD26 = biological target: GOPC, Q9HD26
# DLG1_2, Q12959 = biological target: DLG1_2, Q12959
# DLG1_3, Q12959 = biological target: DLG1_3, Q12959
# LNX2_2, Q8N448 = biological target: T5, LNX2_2, Q8N448
# APBA1_1, Q02410 = biological target: T6, APBA1_1, Q02410
# PTPN3, P26045 = biological target: PTPN3, P26045
# PDLIM1, O00151 = biological target: PDLIM1, O00151
# Inadl_8, Q8NI35 = biological target: Inadl_8, Q8NI35
# DFNB31_2, Q9P202 = biological target: T7, DFNB31_2, Q9P202
# DLG3_3, Q92796 = biological target: T8, DLG3_3, Q92796
# NHERF4_1, Q86UT5-2 = biological target: NHERF4_1, Q86UT5-2
# SCRIB_1, Q14160 = biological target: SCRIB_1, Q14160
# NOS1, P29475 = biological target: NOS1, P29475
# PDZRN4_1, Q6ZMN7 = biological target: PDZRN4_1, Q6ZMN7
# FRMPD1, Q5SYB0 = biological target: T9, FRMPD1, Q5SYB0
# Inadl_5, Q8NI35 = biological target: Inadl_5, Q8NI35
# TJP2_1, Q9UDY2 = biological target: TJP2_1, Q9UDY2
# [1] = plain residues with an end cap or a label only (N-terminal biotin on a linker: (peg)3)
# [2] = plain residues with an end cap or a label only (N-terminal biotin on a linker: ado-ado)
# Sequence of SCRIB_1, Q14160 (Q14160 718-814): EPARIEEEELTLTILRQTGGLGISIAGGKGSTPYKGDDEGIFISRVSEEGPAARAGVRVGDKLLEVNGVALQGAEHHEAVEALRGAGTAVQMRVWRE
# Sequence of NHERF4_1, Q86UT5-2 (Q86UT5 other isoform, or with tags, fused parts or gaps): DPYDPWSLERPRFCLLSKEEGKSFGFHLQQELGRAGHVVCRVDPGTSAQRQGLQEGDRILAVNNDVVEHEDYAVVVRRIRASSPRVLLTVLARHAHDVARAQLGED
# Sequence of Inadl_4, Q8NI35 (Q8NI35 547-651): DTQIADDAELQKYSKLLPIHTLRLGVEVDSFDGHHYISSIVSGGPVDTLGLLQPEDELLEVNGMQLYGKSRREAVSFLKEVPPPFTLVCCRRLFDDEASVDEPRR
# Sequence of TJP2_1, Q9UDY2 (Q9UDY2 24-128): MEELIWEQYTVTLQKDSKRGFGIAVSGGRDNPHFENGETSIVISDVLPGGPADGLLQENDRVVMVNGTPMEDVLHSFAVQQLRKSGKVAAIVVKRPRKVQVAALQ
# Sequence of DLG1_3, Q12959 (Q12959 457-571): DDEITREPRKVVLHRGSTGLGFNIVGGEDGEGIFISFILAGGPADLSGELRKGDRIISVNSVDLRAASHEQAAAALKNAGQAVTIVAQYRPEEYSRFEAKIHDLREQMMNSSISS
# Sequence of FRMPD3, Q5JV73 (Q5JV73 12-100): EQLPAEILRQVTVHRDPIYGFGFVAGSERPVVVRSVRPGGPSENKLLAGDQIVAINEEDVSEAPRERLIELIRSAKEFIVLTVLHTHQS
# Sequence of PTPN3, P26045 (P26045 505-587): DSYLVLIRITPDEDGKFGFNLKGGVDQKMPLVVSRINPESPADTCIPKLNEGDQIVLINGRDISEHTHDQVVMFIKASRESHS
# Sequence of Inadl_9, Q8NI35 (Q8NI35 1530-1615): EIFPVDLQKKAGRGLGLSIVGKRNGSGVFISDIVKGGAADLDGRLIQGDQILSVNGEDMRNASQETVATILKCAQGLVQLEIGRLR
# Sequence of PDLIM1, O00151 (O00151 1-87): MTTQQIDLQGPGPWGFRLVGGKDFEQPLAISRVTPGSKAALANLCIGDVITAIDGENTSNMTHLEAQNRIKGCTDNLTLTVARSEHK
# Sequence of GRIP2_3, Q9C0E4 (Q9C0E4 238-339): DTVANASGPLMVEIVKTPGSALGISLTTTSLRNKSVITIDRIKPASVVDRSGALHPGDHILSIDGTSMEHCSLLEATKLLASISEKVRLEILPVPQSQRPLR
# Sequence of Inadl_5, Q8NI35 (Q8NI35 673-780): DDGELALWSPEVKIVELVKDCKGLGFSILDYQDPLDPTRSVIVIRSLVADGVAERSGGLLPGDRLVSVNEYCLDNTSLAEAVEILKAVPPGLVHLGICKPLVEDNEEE
# Sequence of SCRIB_3, Q14160 (Q14160 999-1103): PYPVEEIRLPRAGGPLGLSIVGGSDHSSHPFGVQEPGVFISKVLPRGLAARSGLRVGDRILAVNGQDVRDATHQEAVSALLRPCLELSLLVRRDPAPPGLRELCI
# Sequence of TJP1_3, Q07157 (Q07157 416-512): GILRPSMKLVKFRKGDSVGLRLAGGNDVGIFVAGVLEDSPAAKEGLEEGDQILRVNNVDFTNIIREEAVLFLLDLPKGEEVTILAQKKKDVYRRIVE
# Sequence of PDZRN4_1, Q6ZMN7 (Q6ZMN7 213-318): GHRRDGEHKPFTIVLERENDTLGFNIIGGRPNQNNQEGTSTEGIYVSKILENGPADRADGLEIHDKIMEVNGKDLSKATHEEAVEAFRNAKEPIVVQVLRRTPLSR
# Sequence of DLG1_2, Q12959 (Q12959 314-412): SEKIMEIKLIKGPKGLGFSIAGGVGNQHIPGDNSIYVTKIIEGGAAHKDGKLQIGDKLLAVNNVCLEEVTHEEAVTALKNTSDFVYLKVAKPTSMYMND
# Sequence of NOS1, P29475 (P29475 9-101): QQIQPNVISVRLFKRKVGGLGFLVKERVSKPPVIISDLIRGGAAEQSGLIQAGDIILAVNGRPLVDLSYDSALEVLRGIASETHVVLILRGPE
# Sequence of Inadl_10, Q8NI35 (Q8NI35 1673-1763): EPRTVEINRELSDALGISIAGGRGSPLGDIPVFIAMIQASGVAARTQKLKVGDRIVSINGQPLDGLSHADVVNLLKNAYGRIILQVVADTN
# Sequence of Inadl_8, Q8NI35 (Q8NI35 1425-1530): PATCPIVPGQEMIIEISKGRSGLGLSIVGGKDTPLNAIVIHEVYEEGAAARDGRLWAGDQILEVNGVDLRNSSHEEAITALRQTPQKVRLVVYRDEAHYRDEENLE
# Sequence of AHNAK1, Q09666 (Q09666 4-100): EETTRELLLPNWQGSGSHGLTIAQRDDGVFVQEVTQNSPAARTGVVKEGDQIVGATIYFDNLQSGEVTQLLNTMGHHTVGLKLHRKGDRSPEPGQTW
binder,measurement,setting,value
"QQSMSSADSTQA [SARS-Cov2-N, P0DTC9]",pKd,"TJP1_3, Q07157; [1]",below the threshold
same,pKd,"Inadl_9, Q8NI35; [1]",below the threshold
same,pKd,"AHNAK1, Q09666; [1]",below the threshold
same,pKd,"HTRA3, P83110; [1]",below the threshold
same,pKd,"GRIP2_3, Q9C0E4; [1]",below the threshold
same,pKd,"Inadl_4, Q8NI35; [1]",below the threshold
same,pKd,"SCRIB_3, Q14160; [1]",below the threshold
same,pKd,"FRMPD3, Q5JV73; [1]",below the threshold
same,pKd,"DVL3, Q92997; [1]",below the threshold
same,pKd,"GRIP1_5, Q9Y3R0; [1]",below the threshold
same,pKd,"APBA1_2, Q02410; [1]",below the threshold
same,pKd,"Inadl_10, Q8NI35; [1]",below the threshold
same,pKd,"GOPC, Q9HD26; [1]",below the threshold
same,pKd,"DLG1_2, Q12959; [1]",below the threshold
same,pKd,"DLG1_3, Q12959; [1]",below the threshold
same,pKd,"LNX2_2, Q8N448; [1]",below the threshold
same,pKd,"APBA1_1, Q02410; [1]",below the threshold
same,pKd,"PTPN3, P26045; [1]",below the threshold
same,pKd,"PDLIM1, O00151; [1]",below the threshold
same,pKd,"Inadl_8, Q8NI35; [1]",below the threshold
same,pKd,"DFNB31_2, Q9P202; [1]",below the threshold
same,pKd,"DLG3_3, Q92796; [1]",below the threshold
same,pKd,"NHERF4_1, Q86UT5-2; [1]",below the threshold
same,pKd,"SCRIB_1, Q14160; [1]",below the threshold
same,pKd,"NOS1, P29475; [1]",below the threshold
same,pKd,"PDZRN4_1, Q6ZMN7; [1]",below the threshold
same,pKd,"FRMPD1, Q5SYB0; [1]",below the threshold
same,pKd,"Inadl_5, Q8NI35; [1]",below the threshold
same,pKd,"TJP2_1, Q9UDY2; [1]",below the threshold
"PPGKHLVTEV [KCNA7, Q96RP8]",pKd,"TJP1_3, Q07157; [2]",below the threshold
same,pKd,"Inadl_9, Q8NI35; [2]",below the threshold
same,pKd,"AHNAK1, Q09666; [2]",below the threshold
same,pKd,"HTRA3, P83110; [2]",below the threshold
same,pKd,"GRIP2_3, Q9C0E4; [2]",below the threshold
same,pKd,"Inadl_4, Q8NI35; [2]",below the threshold
same,pKd,"SCRIB_3, Q14160; [2]",4.56
same,pKd,"FRMPD3, Q5JV73; [2]",below the threshold
same,pKd,"DVL3, Q92997; [2]",below the threshold
same,pKd,"GRIP1_5, Q9Y3R0; [2]",below the threshold
same,pKd,"APBA1_2, Q02410; [2]",4.17
same,pKd,"Inadl_10, Q8NI35; [2]",3.7
same,pKd,"GOPC, Q9HD26; [2]",3.68
same,pKd,"DLG1_2, Q12959; [2]",5.1
same,pKd,"DLG1_3, Q12959; [2]",4.09
same,pKd,"LNX2_2, Q8N448; [2]",4.91
same,pKd,"APBA1_1, Q02410; [2]",below the threshold
same,pKd,"PTPN3, P26045; [2]",4.74
same,pKd,"PDLIM1, O00151; [2]",below the threshold
same,pKd,"Inadl_8, Q8NI35; [2]",3.98
same,pKd,"DFNB31_2, Q9P202; [2]",below the threshold
same,pKd,"DLG3_3, Q92796; [2]",4.33
same,pKd,"NHERF4_1, Q86UT5-2; [2]",3.94
same,pKd,"SCRIB_1, Q14160; [2]",4.72
same,pKd,"NOS1, P29475; [2]",3.7
same,pKd,"PDZRN4_1, Q6ZMN7; [2]",below the threshold
same,pKd,"FRMPD1, Q5SYB0; [2]",below the threshold
same,pKd,"Inadl_5, Q8NI35; [2]",below the threshold
same,pKd,"TJP2_1, Q9UDY2; [2]",3.6
